Results published in patent US20250257128A1 (DRAGONBOAT BIOPHARMACEUTICAL SHANGHAI, published 2025).
Several values for one entry are separate records, joined by “and”; a condition that tells them apart may be missing. Equal values may be shown once.

Key:
[1] = biological target: T1, human CD47 (human, UniProt Q08722 19-323); assay: flow cytometry on human red blood cells, antibody at 15 µg/mL
T1 construct: whole, on cells; also called CD47 on red blood cells; endogenous CD47 on NUGC-4 cells
Procedure: (§1) Flow cytometry was used to determine whether the bispecific antibody was bound to red blood cells. Another anti-CD47 antibody F4AM4-IgG1 (abbreviated as F4AM4 in the accompanying drawings; the amino acid sequence of the heavy chain is SEQ ID NO: 24, and the amino acid sequence of the light chain is SEQ ID NO: 25) developed by the applicant was used as a positive control antibody.
(§2) The specific method was as follows: red blood cells were isolated from 1 mL of anticoagulant human blood, and the supernatant was aspirated following centrifugation. After the cells were rinsed twice with PBS, 1 mL of PBS was added to resuspend the red blood cells. The red blood cells were diluted to 1×10⁷/mL with PBS, pipetted at 50 μL/well and added to a 96-well round bottom cell culture plate. Then an equal volume of the serially diluted antibody to be tested was added, fully mixed, and incubated at 4° C. for 1 h. After the culture was rinsed with FACS buffer for three times, 0.5 μg of PE-labeled goat anti-human IgG Fc antibody (Abcam, ab98596) was added, followed by incubation at 4° C. for 1 h. Subsequently, the cells were rinsed with FACS buffer for three times and then resuspended by adding 200 μL of FACS buffer, and finally the amount of the antibody binding to the red blood cells (expressed as mean fluorescence intensity (MFI)) was measured by a flow cytometer (Beckman, CytoFLEX AOO-1-1102).

[2] = biological target: T1, human CD47; assay: flow cytometry on human red blood cells, antibody at 150 µg/mL
Procedure: as §1, §2

[3] = biological target: T1, human CD47; assay: flow cytometry, blocking of SIRPα-mFc binding to CD47 on hCLDN18.2-NUGC-4 cells
Procedure: (§3) The specific method was as follows: 1×10⁵ NUGC-4 cells or hCLDN18.2-NUGC-4 cells were taken and centrifuged at a low speed (300 g), and the supernatant was removed. The cells at the bottom of the centrifuge tube were rinsed once with a formulated FACS buffer (1×PBS buffer containing 2% FBS). Subsequently, the serially diluted antibody to be tested was added to the rinsed cells, which were then incubated for 1 h. After the cells were rinsed twice with FACS buffer, 100 μL of 1 μg/mL SIRPα-mFc (ACRO, SIA-H52A8) was added, followed by incubation at 4° C. for 1 h. After the cells were rinsed with FACS buffer for three times, 100 μL of 1:200 diluted PE-labeled goat anti-mouse Fc (Abcam, ab98742) was added as the secondary antibody, followed by incubation at 4° C. for 1 h. After centrifugation, the supernatant was removed, the cells were resuspended by adding 200 μL of FACS buffer, and finally the amount of SIRPα-mFc binding to the cells (expressed as mean fluorescence intensity (MFI)) was measured by a flow cytometer (Beckman, CytoFLEX AOO-1-1102).
Besides, due to the fact that the anti-CLDN18.2 single domain antibody NA3S-H1 was only bound to CLDN18.2, the antibody had no blocking effect.

[4] = biological target: T1, human CD47; assay: flow cytometry, blocking of SIRPα-mFc binding to CD47 on NUGC-4 cells
Procedure: as §3

T1 sequence (Q08722 19-323): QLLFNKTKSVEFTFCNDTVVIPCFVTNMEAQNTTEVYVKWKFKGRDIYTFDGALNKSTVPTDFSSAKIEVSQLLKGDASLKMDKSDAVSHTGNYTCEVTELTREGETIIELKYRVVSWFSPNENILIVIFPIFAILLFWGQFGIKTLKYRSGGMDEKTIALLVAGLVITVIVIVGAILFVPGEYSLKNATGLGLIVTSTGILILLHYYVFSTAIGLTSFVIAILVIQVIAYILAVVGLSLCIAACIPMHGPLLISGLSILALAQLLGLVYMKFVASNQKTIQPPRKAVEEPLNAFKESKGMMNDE

Binder | MFI [1] | MFI [2] | IC50 [3] | IC50 [4]
anti-CD47/anti-CLDN18.2 bispecific antibody B8 (bispecific antibody, human IgG1, kappa, IgG-like format, human IgG1 / kappa constant regions) heavy: not shown light: DIQMTQSPSSLSASVGDRVTITCRASQDISNHLNWYQQKPGKAPKLLIYYTSRIHSGVPSSFRGSGSGTDYTLTISSLQPEDIATYFCQQGYTLPFTFGSGTKLEIKRTVAAPSVFIFPPSDEQLKSGTASVVCLLNNFYPREAKVQWKVDNALQSGNSQESVTEQDSKDSTYSLSSTLTLSKADYEKHKVYACEVTHQGLSSPVTKSFNRGEC | 988 MFI | 2140 MFI | – | –
anti-CD47/anti-CLDN18.2 bispecific antibody B10 (bispecific antibody, human IgG1, kappa, IgG-like format; NA3S-H1 VHH at the C-terminus of the heavy chain through Linker1) heavy: not shown light: DIQMTQSPSSLSASVGDRVTITCRASQDISNHLNWYQQKPGKAPKLLIYYTSRIHSGVPSSFRGSGSGTDYTLTISSLQPEDIATYFCQQGYTLPFTFGSGTKLEIKRTVAAPSVFIFPPSDEQLKSGTASVVCLLNNFYPREAKVQWKVDNALQSGNSQESVTEQDSKDSTYSLSSTLTLSKADYEKHKVYACEVTHQGLSSPVTKSFNRGEC | 534 MFI | 2490 MFI | 0.765 µg/mL and 4.48 nM | –
antibody 1F8 (the 1F8 antibody in WO 2018075857 A1) (antibody, V domains shown) VH: KVQLVESGGGLVKPGGSLRLSCAASGFTFSNAWMNWVRQAPGKGLEWVGRIKRKTDGETTDYAAPVKGRFSISRDDSKNTLYLQMNSLKTEDTAVYYCAGSNRAFDIWGQGTMVTVSA VL: DIVMTQSPDSLAVSLGERATINCKSSQSVLYSSNNRNYLAWYQQKPGQPPKLLINQASTRASGVPDRFSGSGSGTEFTLIISSLHAEDVAIYYCQQYYTPPLAFGGGTKLEIK | – | – | 12 µg/mL and 82.3 nM | 15.4 µg/mL and 106 nM
anti-CD47/anti-CLDN18.2 bispecific antibody B9 (bispecific antibody, human IgG1, kappa, IgG-like format; NA3S-H1 VHH at the N-terminus of the light chain through Linker1) heavy: not shown light: QVQLVESGGGLVQPGGSLRLSCAASGSIFNIPVMGWYRQAPGKQRELVAGISTGGTTNYGDSVKGRFTISRDNAKNTVYLQMNSLKPEDTAVYYCNVLVVSGIGSTLEVWGQGTLVTVSSGGGGSGGGGSDIQMTQSPSSLSASVGDRVTITCRASQDISNHLNWYQQKPGKAPKLLIYYTSRIHSGVPSSFRGSGSGTDYTLTISSLQPEDIATYFCQQGYTLPFTFGSGTKLEIKRTVAAPSVFIFPPSDEQLKSGTASVVCLLNNFYPREAKVQWKVDNALQSGNSQESVTEQDSKDSTYSLSSTLTLSKADYEKHKVYACEVTHQGLSSPVTKSFNRGEC | 239 MFI | 1220 MFI | – | –

The next lines start with the values.

MFI [1] | MFI [2] | IC50 [3] | IC50 [4] | Binder
1620 MFI | 2530 MFI | – | – | anti-CD47/anti-CLDN18.2 bispecific antibody B12 (bispecific antibody, human IgG1, kappa, IgG-like format; NA3S-H1 VHH at the N-terminus of the heavy chain through Linker2 (GGGGS)) heavy: not shown light: DIQMTQSPSSLSASVGDRVTITCRASQDISNHLNWYQQKPGKAPKLLIYYTSRIHSGVPSSFRGSGSGTDYTLTISSLQPEDIATYFCQQGYTLPFTFGSGTKLEIKRTVAAPSVFIFPPSDEQLKSGTASVVCLLNNFYPREAKVQWKVDNALQSGNSQESVTEQDSKDSTYSLSSTLTLSKADYEKHKVYACEVTHQGLSSPVTKSFNRGEC
463 MFI | 608 MFI | – | – | anti-CD47 humanized antibody A7H3L3 (antibody, human IgG1, kappa, V domains shown, also called A7H3L3 monoclonal antibody; anti-CD47 monoclonal antibody A7H3L3) VH: QVQLVQSGAEVKKPGASVKVSCKASGFNIKDIYIYWVRQAPGQGLEWIGKIDPANGNTKYDQKFQGRATITADTSTNTAYLELSSLRSEDTAVYYCARGYGSGFAYWGQGTLVTVSS VL: DIQMTQSPSSLSASVGDRVTITCRASQDISNHLNWYQQKPGKAPKLLIYYTSRIHSGVPSSFRGSGSGTDYTLTISSLQPEDIATYFCQQGYTLPFTFGSGTKLEIKR
– | – | 0.056 µg/mL and 0.383 nM | 0.033 µg/mL and 0.226 nM | anti-CD47 antibody F4AM4-IgG1 (antibody, V domains shown, Positive control anti-CD47 antibody developed by the applicant) VH: QVQLVQSGAEVKKPGASVKMSCKASGYTFTSSVMHWVRQAPGQGLEWIGYINPYTDGTKYAQKFQGRATLTSDKSTSTAYMEFSSLRSEDTAVYYCGRPYYGTRYGSWFAYWGQGTLVTVSS VL: DIQMTQSPSSLSASVGDRVTITCRASQDISNYLNWYQQKPGKAPKLLIYYTSRLHSGVPSRFSGSGSGTDYTLTISNLQPEDIATYYCQQGKNYPFTFGSGTKLEIKR
238 MFI | 847 MFI | – | – | anti-CD47/anti-CLDN18.2 bispecific antibody B11 (bispecific antibody, human IgG1, kappa, IgG-like format; NA3S-H1 VHH at the N-terminus of both heavy and light chains) heavy: not shown light: QVQLVESGGGLVQPGGSLRLSCAASGSIFNIPVMGWYRQAPGKQRELVAGISTGGTTNYGDSVKGRFTISRDNAKNTVYLQMNSLKPEDTAVYYCNVLVVSGIGSTLEVWGQGTLVTVSSGGGGSGGGGSDIQMTQSPSSLSASVGDRVTITCRASQDISNHLNWYQQKPGKAPKLLIYYTSRIHSGVPSSFRGSGSGTDYTLTISSLQPEDIATYFCQQGYTLPFTFGSGTKLEIKRTVAAPSVFIFPPSDEQLKSGTASVVCLLNNFYPREAKVQWKVDNALQSGNSQESVTEQDSKDSTYSLSSTLTLSKADYEKHKVYACEVTHQGLSSPVTKSFNRGEC
